Entries after “also recorded” stand apart in the source; their conditions may differ.
B1: PEG-BCT-100: pegylated recombinant human arginase I (SEQ ID NO.1, or SEQ ID NO.3 with six histidines), about 6-12 PEG molecules per arginase (protein, UniProt P05089 1-322, looked up)
Arginase-1: MSAKSRTIGIIGAPFSKGQPRGGVEEGPTVLRKAGLLEKLKEQECDVKDYGDLPFADIPNDSPFQIVKNPRSVGKASEQLAGKVAEVKKNGRISLVLGGDHSLAIGSISGHARVHPDLGVIWVDAHTDINTPLTTTSGNLHGQPVSFLLKELKGKIPDVPGFSWVTPCISAKDIVYIGLRDVDPGEHYILKTLGIKYFSMTEVDRLGIGKVMEETLSYLLGRKKRPIHLSFDVDGLDPSFTPATGTPVVGGLTYREGLYITEEIYKTGLLSGLDIMEVNPSLGKTPEEVTRTVNTAVAITLACFGLAREGNHKPIDYLNPPK
modifications: PEG, about 6-12 per arginase; optional His6 tag

Columns and labels:
[1] = tested on: SU-DHL-10 B cell lymphoma xenograft; assay: SU-DHL-10 B cell lymphoma xenograft model; type: in vivo, mouse; conditions: SU-DHL-10 xenograft; PEG-BCT-100 20 mg/kg IV twice a week; DFMO 2% w/v in drinking water
Protocol: (§1) In one example embodiment, SU-DHL-10 human lymphoma cells are maintained in vitro culture in RPMI1640 medium supplemented with 20% fetal bovine serum at 37° C. in an atmosphere of 5% CO2 in air. The tumour cells are routinely sub-cultured twice weekly. The cells in an exponential growth phase are harvested and counted for tumour inoculation.
(§2) One day before tumour inoculation, all mice are sub-lethally irradiated with 60Co (200 rad). Each mouse is inoculated subcutaneously at the right flank region with SU-DHL-10 tumour cells (1×10^7) in 0.1 ml of PBS/Matrigel (1:1) for tumour development. The treatments start when the mean tumour volume reached 116 mm^3. The date of tumour cell inoculation is denoted as day 0.
(§3) Four treatment groups of animals, with eight animals in each group, are tested. Control group (negative control) receives physiological saline, 20 mg/kg of PEG-BCT-100 alone, 2% w/v DFMO in drinking water, and combination of 20 mg/kg of PEG-BCT-100 and 2% w/v DFMO. PEG-BCT-100 is administered intravenously, twice a week, until euthanization while DFMO is supplied in drinking water at 2% w/v.

[2] = tested on: Hep 3B hepatocellular carcinoma xenograft; assay: Hep 3B hepatocellular carcinoma xenograft model; type: in vivo, mouse; conditions: Hep 3B xenograft; PEG-BCT-100 20 mg/kg IV twice a week; DFMO 2% w/v in drinking water
Protocol: (§4) In one example embodiment, the Hep 3B tumour cells are maintained in vitro culture in EMEM medium supplemented with 10% heat inactivated fetal bovine serum at 37° C. in an atmosphere of 5% CO2 in air. The tumour cells are routinely sub-cultured twice weekly. The cells growing in an exponential growth phase are harvested and counted for tumour inoculation.
Each mouse is inoculated subcutaneously at the right flank region with Hep 3B tumour cells (5×10^6) in 0.1 ml of PBS (1:1 Matrigel) for tumour development. The treatments start when the mean tumour size reaches 119 mm^3. The date of tumour cell inoculation is denoted as day 0.
as §3, with “saline, and the three treatment groups respectively receive” for “saline,”

[3] = tested on: SU-DHL-6 B cell lymphoma xenograft; assay: SU-DHL-6 B cell lymphoma xenograft model; type: in vivo, mouse; conditions: SU-DHL-6 xenograft; PEG-BCT-100 20 mg/kg IV twice a week; DFMO 2% w/v in drinking water
Protocol: as §4, with “SU-DHL-6 human lymphoma” for “Hep 3B tumour”, “vitro as a suspension” for “vitro”, “RPMI1640” for “EMEM”
as §2, with “SU-DHL-6” for “SU-DHL-10”, “(5×10^6)” for “(1×10^7)”, “size reaches 125” for “volume reached 116”
as §3, with “Four groups of” for “Four treatment groups of”, “physiological saline, and the three treatment groups respectively receive 20 mg/kg” for “physiological saline, 20 mg/kg”, “water, and a combination of” for “water, and combination of”

[4] = tested on: Hep G2 hepatocellular carcinoma xenograft; assay: Hep G2 hepatocellular carcinoma xenograft model; type: in vivo, mouse; conditions: PEG-BCT-100 20 mg/kg IV twice a week, DFMO 2% w/v in drinking water
Protocol: as §1, with “the Hep G2” for “SU-DHL-10”, “liver cancer” for “lymphoma”, “10%” for “20%”
Each mouse is inoculated subcutaneously at the right flank region with Hep G2 tumour cells (1×10^7) in 0.2 ml of PBS (1:1 Matrigel) for tumour development. The treatments start when the mean tumour volume reaches 124 mm^3. The date of tumour cell inoculation is denoted as day 0.
as §3, with “saline, and the three treatment groups respectively receive” for “saline,”

[5] = tested on: H1975 lung adenocarcinoma cell line; assay: MTT assay, growth inhibition of H1975 cell line; type: cell-based; conditions: 48 h and 72 h at 0.5 ng/μl and 10 ng/μl
Protocol: (§5) The inhibition ratio (IR) and the half maximal inhibitory concentration (IC50) values are determined by a MTT assay.

[6] = tested on: A549 lung adenocarcinoma cell line; assay: MTT assay, growth inhibition of A549 cell line; type: cell-based; conditions: 48 h and 72 h at 0.5 ng/μl and 10 ng/μl
Protocol: as §5

[7] = tested on: HCC4006 lung adenocarcinoma xenografts; assay: HCC4006 lung adenocarcinoma xenograft; type: in vivo, BALB/c nude mice
Protocol: In one example embodiment, ten million lung adenocarcinoma cells from cell lines H1650, H1975, and HCC4006 are engrafted subcutaneously in BALB/cnude mice (4 weeks old with body weight of 10-14 g). Body weight, clinical signs and survival times are recorded.
Two groups of the mice, with eight mice in each group, are tested. Control group (negative control) receives physiological saline and treatment group receives 20 mg/kg of PEG-BCT-100. PEG-BCT-100 is administered via intraperitoneal (IP) injection, twice weekly, until euthanization.
In one example embodiment, ten million lung adenocarcinoma cells from cell lines H1650, H1975 and HCC4006 are engrafted subcutaneously in BALB/cnude mice (4 weeks old with body weight of 10-14 g). Body weight, clinical signs and survival times are recorded.
as §3, with “Four” for “Four treatment”, “the mice,” for “animals,”, “mice” for “animals”, “saline, and the three treatment groups respectively receive” for “saline,”, “intraperitoneally,” for “intravenously,”

[8] = tested on: H23 lung adenocarcinoma cell line; assay: MTT assay, growth inhibition of H23 cell line; type: cell-based; conditions: 48 h and 72 h at 0.5 ng/μl and 10 ng/μl
Protocol: as §5

Row | Molecule | anti-tumour effect [1] | anti-tumour effect [2] | anti-tumour effect [3] | anti-tumour effect [4] | growth inhibition effect (cell proliferation) [5] | growth inhibition effect (cell proliferation) [6] | tumour growth ([7]; PEG-BCT-100 20 mg/kg IP twice weekly, DFMO 2% w/v in drinking water, 20 mg/kg) | in vivo ASS1 expression (Western blot) ([7]; PEG-BCT-100 20 mg/kg vs control arm) | in vivo ODC expression (Western blot) ([7]; PEG-BCT-100 20 mg/kg vs control arm, 20 mg/kg) | growth inhibition effect (cell proliferation) [8]
1 | NCCC[C@](N)(C(=O)O)C(F)F [DFMO, α-difluoromethylornithine, reference compound] | no significant anti-tumour effect | significant anti-tumour effect | do not produce a significant anti-tumour effect | significant anti-tumour effect |  |  |  |  |  | 
2 | B1 | slightly promotes SU-DHL-10 tumour growth | does not produce a significant anti-tumour effect | do not produce a significant anti-tumour effect |  | inhibits H1975 lung adenocarcinoma cell line proliferation | inhibits A549 lung adenocarcinoma cell line proliferation more effectively than ADI | suppresses tumor growth; also recorded: inhibits tumour growth | remains unchanged | remains negative; also recorded: does not show upregulation of ODC | inhibits H23 lung adenocarcinoma cell line proliferation more effectively than ADI

— patent US20180271960A1, “METHOD TO TREAT CANCER USING ARGININE DELPETOR AND ORNITHINE DECARBOXYLASE (ODC) INHIBITOR” (Bio-Cancer Treatment International Ltd., priority 2015, published 2018)
